Test results as given in patent US12534748B2, “Engineered beta-subunit of tryptophan synthase for production of non-canonical amino acids” (California Institute of Technology, priority 2015, dated 2026).
Positions count from the first letter of the chain named. Names and notes keep the numbering of the source.

What was measured:
[1] = Thermostability T50 (temperature of half-maximal activity after incubation for 1 h); format: physicochemical; conditions: for T50: temperature of half-maximal activity after incubation for 1 h
[2] = Substrate selectivity: relative rate of NCAA production with L-serine and indole analogs (UHPLC-MS); format: biochemical
Protocol: engineered TrpB enzymes. (A) Indole analogs that have been reported to react with StTrpS were tested for reactivity with the PfTrpB, PfTrpS, and PfTrpB^0B2 enzymes. The nucleophilic atom is indicated with a gray circle. (B) Relative activities of enzyme complex PfTrpS (black) and PfTrpB^0B2 (gray) compared with PfTrpB. Reactions performed in duplicate with 20 mM of each substrate and varying enzyme concentrations to ensure incomplete conversion after 1 h. Products were later confirmed in scaled-up reactions using PfTrpB^0B2.
Substrate Selectivity. The relative rate of NCAA production was measured using 20 mM L-serine and 20 mM indole analog (FIG. 4A) in 200 mM potassium phosphate (pH 8.0) with 5% (vol/vol) DMSO. Reactions were incubated at 75° C. for 1 h, quenched, and the relative rate of production formation was measured by comparing the ratio of the product peaks measured via ultra HPLC-MS (UHPLC-MS) Agilent 1290 with 6140 MS detector at 280 nm and then normalizing for the enzyme concentration.

[3] = Total turnovers of β-MeTrp formation from L-threonine and indole; format: biochemical; conditions: for Turnovers: 1 μM purified enzyme, 20 mM each L-threonine and indole, 24 h at 75° C.; for turnovers (TTN) of β-MeTrp production: purified enzyme, 24 hours
Protocol: Total Turnover Number (TTN) determination. Measurements were made using HPLC and LC-MS instruments. The amount of Trp formed was measured at 280 nm using a standard curve with trichlorobenzene as internal standard. […] This same technique was used to determine the TTN of the PfTrpB^2B9 reaction with different nucleophiles. […] […] Before addition of enzyme, all reagents were transferred into a Coy anaerobic chamber with <1 ppm O2 to rapidly exchange the atmosphere in the headspace of the vials to 95/5% N2/H2, which limits competing non-catalytic oxidation of indoles. Enzyme was added in the anaerobic environment with varied catalyst loading to ensure a robust product signal in subsequent analysis. Reaction vessels were capped before being removed from the anaerobic chamber and incubated in a 75° C. water bath for 24 hours. Reactions were quenched the next day by addition of 1 volume (150 μL) of 100% ACN, mixing, and allowing to rest at room temperature for 10 min. Quenched solutions were then diluted 5-fold with 40% ACN in water and analyzed via LC-MS.
To identify the best parent enzyme for optimization, we first measured production of β-MeTrp using purified enzymes from each generation in the evolution if PfTrpB^0B2.

[4] = Kinetics of tryptophan formation monitored at 290 nm (continuous assay for Trp production); format: biochemical
Protocol: Kinetics and UV-Vis Spectroscopy. Data were collected between 550 and 250 nm on a UV1800 Shimadzu spectrophotometer (Shimadzu) using 0.25-20 μM of enzyme in 200 mM potassium phosphate (pH 8.0) in a quartz cuvette. Samples were incubated at 75° C. for >3 min to ensure a stable temperature was reached. PfTrpB activity (kcat) was measured by monitoring tryptophan formation at 290 nm using Δe290=1.89 mM^−1·cm^−1.
Purified protein concentrations were determined via the Bradford assay (Bio-Rad). The concentration of PfTrpB^2B9 in heat treated lysates was determined by specific activity. Tryptophan formation was monitored at 75° C. over 1 min at 290 nm using Δε290=1.89 mM^−1 cm^−1·^2 The assay buffer contained 200 mM potassium phosphate pH 8, and 5 μM PLP. Using purified PfTrpB^2B9, we recorded an activity of 0.9 s^−1 with 400 μM Ind and 20 mM Ser. Using this parameter, 375 mg L^−1 of PfTrpB^2B9 active catalyst were prepared as a heat-treated lysate.

[5] = test system: PfTrpA; format: biochemical, Pyrococcus furiosus
[6] = target: T1, PfTrpA (Pyrococcus furiosus, UniProt Q8U094); format: biochemical; conditions: percent of its own activity
T1 construct: made in house; host or cells: E. coli BL21 E. cloni EXPRESS
T1 sequence (Q8U094 whole entry, looked up): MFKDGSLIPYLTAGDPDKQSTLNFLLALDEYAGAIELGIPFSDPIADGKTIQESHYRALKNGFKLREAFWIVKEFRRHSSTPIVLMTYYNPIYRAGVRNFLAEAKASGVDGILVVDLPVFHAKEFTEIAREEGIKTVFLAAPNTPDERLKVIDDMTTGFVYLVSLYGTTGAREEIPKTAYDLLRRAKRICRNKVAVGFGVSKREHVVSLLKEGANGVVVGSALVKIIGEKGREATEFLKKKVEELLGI

[7] = Rescreen of library hits for β-MeTrp formation (heat-treated lysate, HPLC); format: biochemical; conditions: random mutagenesis library, parent PfTrpB^4D11, 60 min reaction at 75° C.
Protocol: High-throughput screening. For high-throughput expression, BL21 E. cloni Express cells carrying PfTrpB^4D11 and variant plasmids were grown in 96-well deep well plates in 300 μL TBamp at 37° C. and 80% humidity with shaking at 250 rpm overnight. TBamp expression cultures (630 μL) were inoculated with 20 μL of the overnight cultures and continued to grow at 37° C. and 80% humidity with shaking at 250 rpm for 3 h. Expression was induced with the addition of ITPG to a final concentration of 1 mM to pre-chilled (20 min on ice-water bath) cultures. The expression continued for another 20 h at 20° C. with shaking at 250 rpm. Cells were then centrifuged at 4000 g for 10 min and frozen at −20° C. over night. […] The reactions were then arrested by incubation in an ice-water bath, and the amount of β-MeTrp formed was recorded at 290 nm with a plate reader (Tecan Infinite M200).
Cultures of each hit containing missense mutations were grown in triplicate on 5 mL scale and expression and lysis proceeded in the same manner as described in the Cloning, Expression and Purification section above. Reactions using 10 μM protein as heat-treated lysate (determined by Bradford assay) and 20 mM each substrate were run for 1 h at 75° C. and quenched by dilution to 50% ACN.

[8] = target: T2, PfTrpA (Pyrococcus furiosus, UniProt Q8U094); format: biochemical; conditions: Table 1, values for PfTrpB reported here
T2 construct: made in house; host or cells: E. coli BL21 E. cloni EXPRESS
T2 sequence (Q8U094 1-248): T1 sequence (Q8U094 whole entry, looked up)
T2 sequence (Q8U093 1-388 partner): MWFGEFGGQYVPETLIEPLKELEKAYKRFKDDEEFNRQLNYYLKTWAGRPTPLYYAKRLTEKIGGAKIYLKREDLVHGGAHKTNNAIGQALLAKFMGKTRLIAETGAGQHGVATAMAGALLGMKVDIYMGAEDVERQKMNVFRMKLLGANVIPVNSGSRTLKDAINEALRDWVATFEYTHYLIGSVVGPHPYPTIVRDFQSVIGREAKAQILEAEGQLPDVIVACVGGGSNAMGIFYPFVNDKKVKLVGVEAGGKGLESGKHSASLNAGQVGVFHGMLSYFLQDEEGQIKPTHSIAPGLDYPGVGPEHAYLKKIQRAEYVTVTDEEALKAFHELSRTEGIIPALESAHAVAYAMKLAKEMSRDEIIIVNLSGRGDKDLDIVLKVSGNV

[9] = Table 1, published values; cited from earlier work

B1: PfTrpB^0B2: PfTrpB with mutations P12L, E17G, I68V, F274S, T292S, T321A (protein)
chain: MWFGEFGGQYVLETLIGPLKELEKAYKRFKDDEEFNRQLNYYLKTWAGRPTPLYYAKRLTEKIGGAKVYLKREDLVHGGAHKTNNAIGQALLAKFMGKTRLIAETGAGQHGVATAMAGALLGMKVDIYMGAEDVERQKMNVFRMKLLGANVIPVNSGSRTLKDAINEALRDWVATFEYTHYLIGSVVGPHPYPTIVRDFQSVIGREAKAQILEAEGQLPDVIVACVGGGSNAMGIFYPFVNDKKVKLVGVEAGGKGLESGKHSASLNAGQVGVSHGMLSYFLQDEEGQIKPSHSIAPGLDYPGVGPEHAYLKKIQRAEYVAVTDEEALKAFHELSRTEGIIPALESAHAVAYAMKLAKEMSRDEIIIVNLSGRGDKDLDIVLKVSGNVLEHHHHHH
modifications: left off: small tags and cut ends
notes: PfTrpB with mutations P12L, E17G, I68V, F274S, T292S, T321A
T50 [1]: 87 °C | activity relative to PfTrpB on the substrate panel ([2]; all nucleophiles tested): substantial increase in activity | rate relative to PfTrpS ([2]; indazole (5)): three | rate relative to PfTrpS ([2]; indoline (6)): approximately six | Turnovers [3]: 180 | kcat higher than PfTrpS [4]: threefold | kcat change with TrpA [5]: 0.04 | activity when PfTrpA was added [6]: 4%

B2: PfTrpB^4D11: PfTrpB with mutations E17G, I68V, F274S, T292S, T321A (protein)
chain: B1 chain with L12P
modifications: left off: small tags and cut ends
notes: PfTrpB with mutations E17G, I68V, F274S, T292S, T321A
T50 [1]: 84 °C | Turnovers [3]: 660 | turnovers (TTN) of β-MeTrp production [3]: ~420 | kcat change with TrpA [5]: 0.3 | Fold Improvement (increase in β-MeTrp formation relative to parent) [7]: 1.0 (parent)

B3: PfTrpB^2G9: PfTrpB with mutation T292S (protein)
chain: B1 chain with L12P, G17E, V68I, S274F, A321T
modifications: left off: small tags and cut ends
notes: PfTrpB with mutation T292S
T50 [1]: 95 °C | enhancement of β-MeTrp activity relative to wild-type PfTrpB [3]: approximately 6 fold | Turnovers [3]: 420 | kcat change with TrpA [5]: 0.34

B4: PfTrpB: wild-type β-subunit of tryptophan synthase from Pyrococcus furiosus, SEQ ID NO:2 (protein, listed as Pyrococcus furiosus)
chain: B1 chain with L12P, G17E, V68I, S274F, S292T, A321T
Thermal stability indicators: T50 ([1]; Table 1): 94.7 ± 1.2 | T50 [1]: 95 °C | Turnovers [3]: 66 | turnovers (TTN) of β-MeTrp production [3]: 66 | kcat change with TrpA [8]: 3.2 | kcat change with TrpA [5]: 3.2

B5: TmTrpB^WT: wild-type TrpB from Thermotoga maritima, SEQ ID NO:6 (protein, listed as Thermotoga maritima)
chain: MKGYFGPYGGQYVPEILMPALEELEAAYEEIMKDESFWKEFNDLLRDYAGRPTPLYFARRLSEKYGARIYLKREDLLHTGAHKINNAIGQVLLAKKMGKTRIIAETGAGQHGVATATAAALFGMECVIYMGEEDTIRQKPNVERMKLLGAKVVPVKSGSRTLKDAINEALRDWITNLQTTYYVIGSVVGPHPYPIIVRNFQKVIGEETKKQILEKEGRLPDYIVACVGGGSNAAGIFYPFIDSGVKLIGVEAGGEGLETGKHAASLLKGKIGYLHGSKTFVLQDDWGQVQVTHSVSAGLDYSGVGPEHAYWRETGKVLYDAVTDEEALDAFIELSRLEGIIPALESSHALAYLKKINIKGKVVVVNLSGRGDKDLESVLNHPYVRERIRLEHHHHHH
kcat change with TrpA [9]: 2.4
